Experimental data published in the supplement of paper PMC9170038.

Tested on: MS2 coat protein
Experiment: apparent KD of MS2 coat protein; designed switch direction (-1 OFF switch, 1 ON switch): 1; higher = weaker reporter binding
How it was run: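 Three titration conditions were used: no input, 200 uM small-molecule ligand, and an oligonucleotide input. In each, SNAP-549-labelled MS2 coat protein was raised from 0.7 or 1.5 nM, doubling, to 3 µM over designed RNA switches transcribed on Illumina chips by stalled E. coli RNA polymerase. Curve fits of normalised cluster fluorescence gave values whose per-design median over clusters is the apparent KD.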

[1] = input ligand: microRNA oligo, concentration not stated
[2] = Eterna round: R95, input ligand: FMN 200 uM
[3] = Eterna round: R95, input ligand: microRNA oligo, concentration not stated
[4] = Eterna round: R95, input ligand: none

Sequence: AGCGAACAGGCUAACAUGAGGAUCACCCAUGUGGACUCAUGUUAGGAUAUCGGGAAGGAGGAAACCGAGAAGGGACGGUGAGCC [AK SSNG3-V2-46] (Eterna round: R96, puzzle: Same State NG 3)
- apparent KD of MS2 coat protein (input ligand: FMN 200 uM): 332 nM
- apparent KD of MS2 coat protein [1]: 14.6 nM
- apparent KD of MS2 coat protein (input ligand: none): 30.6 nM

Sequence: AGCUAGUACCGAGGAUAUACAUACAUGAGGAUCACCCAUGUAUACAUGAAAUAUUGAGACUACAUGUAGAAGGCGGUACUAGCA [Mat - Same State NG 2 - JL mod - D44] (Eterna round: R96, puzzle: Same State NG 2)
- apparent KD of MS2 coat protein (input ligand: FMN 200 uM): 13.6 nM
- apparent KD of MS2 coat protein [1]: 28.4 nM
- apparent KD of MS2 coat protein (input ligand: none): 46.4 nM

Sequence: AGCUAGUACCGAGGAUAUACGUACAUGAGGAUCACCCAUGUAUACAUGGUUUAAUGAGACUACAUGUAGAAGGCGGUACUAGCA [JL SSNG2 1.25] (Eterna round: R96, puzzle: Same State NG 2)
- apparent KD of MS2 coat protein (input ligand: FMN 200 uM): 175 nM
- apparent KD of MS2 coat protein [1]: 532 nM
- apparent KD of MS2 coat protein (input ligand: none): 636 nM

Sequence: AGCUAUCGAAAACGAUAGCAAAAGCAUGUACAUGAGGAUCACCCAUGUCAUGUACAAGCUUUUUGUUCGUCUUAAAA [Zipper 23 - 14] (puzzle: Sensor for hsa-mir-208a)
- apparent KD of MS2 coat protein [2]: 430 nM
- apparent KD of MS2 coat protein [3]: 11.7 nM
- apparent KD of MS2 coat protein [4]: 334 nM

Sequence: AGCUAUCGCGUACGAUAGCUGAAGCGUGUACAUGAGGAUCACCCAUGUCAUGUGCAAGCUUUUUGCUCGUCUUAUUG [JL-shm-2.29 JL mod] (puzzle: Sensor for hsa-mir-208a)
- apparent KD of MS2 coat protein [2]: 353 nM
- apparent KD of MS2 coat protein [3]: 14.8 nM
- apparent KD of MS2 coat protein [4]: 459 nM

Sequence: AGGCCAUCGGGAGGAUAUGGCACCUUAUUGGUGCCAGAAGGUCCAACAUGAGGAUCACCCAUGUGGGAGAGUUCUAAUGAACAU [Fiskers NG1(SS) - 3] (Eterna round: R96, puzzle: Same State NG 1)
- apparent KD of MS2 coat protein (input ligand: FMN 200 uM): 28.4 nM
- apparent KD of MS2 coat protein [1]: 25.3 nM
- apparent KD of MS2 coat protein (input ligand: none): 32.2 nM

Sequence: AGGCUCAGACGAGGAUAUAUGUAAUAACAUGAGGAUCACCCAUGUGUCGAGCUUCGGCUCGACACAUAGAAGGCGUCUGAGCCA [SSNG2/2-A1] (Eterna round: R96, puzzle: Same State NG 2)
- apparent KD of MS2 coat protein (input ligand: FMN 200 uM): 8.75 nM
- apparent KD of MS2 coat protein [1]: 17.4 nM
- apparent KD of MS2 coat protein (input ligand: none): 25.7 nM

Sequence: AGGCUCAGACUAGGAUAUACGUGGUCACAUGAGGAUCACCCAUGUCUCGAGCUUCGGCUCGAGGCGUAGAAGGAGUCUGAGCCA [SSNG2/6-D1] (Eterna round: R96, puzzle: Same State NG 2)
- apparent KD of MS2 coat protein (input ligand: FMN 200 uM): 119 nM
- apparent KD of MS2 coat protein [1]: 260 nM
- apparent KD of MS2 coat protein (input ligand: none): 371 nM

Sequence: AGGCUCAGAGCAGGAUAUAUGUCUCGAGCUUCGGCUCGAGACAUGAGGAUCACCCAUGUAAUAACAUAGAAGGGCUCUGAGCCA [SSNG2/1-B1] (Eterna round: R96, puzzle: Same State NG 2)
- apparent KD of MS2 coat protein (input ligand: FMN 200 uM): 11.2 nM
- apparent KD of MS2 coat protein [1]: 45.8 nM
- apparent KD of MS2 coat protein (input ligand: none): 63.4 nM

Sequence: AGGGAGGAAGCUGAGGAUAUCGUAGGGAGGACAUGAGGAUCACCCAUGUGUAUAGAAUUGGAGGACGAGAAGGCAGAGGAGUGGG [JR_SS2_Sub051] (puzzle: Same State 2)
- apparent KD of MS2 coat protein [2]: 56.6 nM
- apparent KD of MS2 coat protein [3]: 58.5 nM
- apparent KD of MS2 coat protein [4]: 58.2 nM

Sequence: AGUCCAGCAAGAGCUGGACAAAAGCAUGUACAUGAGGAUCACCCAUGUUCAUGUACAAGCUUUUUGCAAGUCAAAAG [Mat - hsa-mir-208a - Mod of JL - 73] (puzzle: Sensor for hsa-mir-208a)
- apparent KD of MS2 coat protein [2]: 321 nM
- apparent KD of MS2 coat protein [3]: 23.9 nM
- apparent KD of MS2 coat protein [4]: 416 nM

Sequence: AGUCCAGCCAGAGCUGGACAAAAGCAUGUACAUGAGGAUCACCCAUGUUCAUGUACAAGCUUUUUGCAAGUCAAAAU [Mat - hsa-mir-208a - Mod of JL - 83] (Eterna round: R96, puzzle: Sensor for hsa-mir-208a)
- apparent KD of MS2 coat protein (input ligand: FMN 200 uM): 578 nM
- apparent KD of MS2 coat protein [1]: 16 nM
- apparent KD of MS2 coat protein (input ligand: none): 592 nM

Sequence: AGUCCAGCCAGAGCUGGACAAAAGCAUGUACAUGAGGAUCACCCAUGUUCAUGUACAAGCUUUUUGCAAGUCAAAAU [Mat - hsa-mir-208a - Mod of JL - 83] (puzzle: Sensor for hsa-mir-208a)
- apparent KD of MS2 coat protein [2]: 614 nM
- apparent KD of MS2 coat protein [3]: 16.8 nM
- apparent KD of MS2 coat protein [4]: 1110 nM

Sequence: AGUCCAGCCUGAGCUGGACAAAAGCAUGUACAUGAGGAUCACCCAUGUCAUGUACAAGCUUUAUGCUCGUCUUAAAA [Mat - hsa-mir-208a - Mod of JL - D15] (puzzle: Sensor for hsa-mir-208a)
- apparent KD of MS2 coat protein [2]: 224 nM
- apparent KD of MS2 coat protein [3]: 15.6 nM
- apparent KD of MS2 coat protein [4]: 298 nM

Sequence: AGUCCAGCCUGAGCUGGACAAAAGCAUGUACAUGAGGAUCACCCAUGUCAUGUACAAGCUUUUUGCAAAUCUUAAUA [Mat - hsa-mir-208a - Mod of JL - D34] (Eterna round: R96, puzzle: Sensor for hsa-mir-208a)
- apparent KD of MS2 coat protein (input ligand: FMN 200 uM): 999 nM
- apparent KD of MS2 coat protein [1]: 14.6 nM
- apparent KD of MS2 coat protein (input ligand: none): 1180 nM

Sequence: AGUCCAGCCUGAGCUGGACAAAAGCAUGUACAUGAGGAUCACCCAUGUCAUGUACAAGCUUUUUGCAAAUCUUAAUA [Mat - hsa-mir-208a - Mod of JL - D34] (puzzle: Sensor for hsa-mir-208a)
- apparent KD of MS2 coat protein [2]: 603 nM
- apparent KD of MS2 coat protein [3]: 14.6 nM
- apparent KD of MS2 coat protein [4]: 807 nM

Sequence: AGUCCAGCCUGAGCUGGACAAAAGCAUGUACAUGAGGAUCACCCAUGUCAUGUACAGGCUUUUUGCUCGUCUUAAUA [Zipper 49 - 7] (puzzle: Sensor for hsa-mir-208a)
- apparent KD of MS2 coat protein [2]: 433 nM
- apparent KD of MS2 coat protein [3]: 16.8 nM
- apparent KD of MS2 coat protein [4]: 583 nM

Sequence: AGUCCAGCCUGAGCUGGACAAAAGCAUGUACAUGAGGAUCACCCAUGUCAUGUGCAAGCUUUUUGCUCGUCUUAAUA [Zipper 49 - 5] (puzzle: Sensor for hsa-mir-208a)
- apparent KD of MS2 coat protein [2]: 64.5 nM
- apparent KD of MS2 coat protein [3]: 11.9 nM
- apparent KD of MS2 coat protein [4]: 70.3 nM

Sequence: AGUCCAGCCUGAGCUGGACAAAAGCAUGUACAUGAGGAUCACCCAUGUCGUGUACAAGCUUUUUGCUCGUCUUAAAA [Zipper 46 - 5] (puzzle: Sensor for hsa-mir-208a)
- apparent KD of MS2 coat protein [2]: 376 nM
- apparent KD of MS2 coat protein [3]: 12.4 nM
- apparent KD of MS2 coat protein [4]: 334 nM

Sequence: AGUCCAGCCUGAGCUGGACAAAAGCAUGUACAUGAGGAUCACCCAUGUUCAUGUACAAGCUUUUUGCUCGAAUUAAA [Mat - hsa-mir-208a - Mod of JL - 53] (puzzle: Sensor for hsa-mir-208a)
- apparent KD of MS2 coat protein [2]: 558 nM
- apparent KD of MS2 coat protein [3]: 15.4 nM
- apparent KD of MS2 coat protein [4]: 822 nM

Sequence: AGUCCAGCCUGAGCUGGACAAAAGCAUGUACAUGAGGAUCACCCAUGUUCAUGUACAAGCUUUUUGCUCGUCUUAAG [salish99_208a_r3_028] (puzzle: Sensor for hsa-mir-208a)
- apparent KD of MS2 coat protein [2]: 606 nM
- apparent KD of MS2 coat protein [3]: 16 nM
- apparent KD of MS2 coat protein [4]: 602 nM

Sequence: AGUCCAGCCUGAGCUGGACAAAAGCAUGUACAUGAGGAUCACCCAUGUUCAUGUACAAGCUUUUUGCUCGUCUUGCU [salish99_208a_r3_105x] (puzzle: Sensor for hsa-mir-208a)
- apparent KD of MS2 coat protein [2]: 578 nM
- apparent KD of MS2 coat protein [3]: 15.7 nM
- apparent KD of MS2 coat protein [4]: 680 nM

Sequence: AGUCCAGCCUGAGCUGGACAAAAGCAUGUACAUGAGGAUCACCCAUGUUCAUGUACAAGUUUUUUGCUCGUCUUAAA [Zipper 52 - 10] (puzzle: Sensor for hsa-mir-208a)
- apparent KD of MS2 coat protein [2]: 38.4 nM
- apparent KD of MS2 coat protein [3]: 11.1 nM
- apparent KD of MS2 coat protein [4]: 39.6 nM
